In data set [1] the target is CrtJ (R. capsulatus) (UniProt P26167). Description: SEC. A general note: In gel filtration, larger molecules generally elute earlier.
Data set [2] has the same target. Description: MST.
The data set “SEC” deals with the molecule itself. Description: SEC.

We go through 2 molecules from publication PMC3946051 (Molecular microbiology, 2014).

What is called stoichiometry N is a count of units in the complex or per binding partner. In general, EC50 refers to the midpoint of the concentration-response curve.

As for AerR:B12 (natural protein), the stoichiometry N in the data set with CrtJ (R. capsulatus) [1] was 1. Further, in the data set with CrtJ (R. capsulatus) [2], the EC50 worked out at 3.3 µM.

B1: CrtJ (natural protein, R. capsulatus, UniProt P26167 1-469, looked up)
chain: MTSDGSFLMRREALQRVSPDLLADIVTSACDIALVVSPGRVVESVMVNPQFGSAERFAAWQGARLSQLFSPESAQKLENRLADGPEPGRSLQLELTHAADAFTLPVRYTITRSGEDGTLLLIGRDMQPLAEVQQQLVKAQLALERDYEAQREIETRYRVLLEAHPAPLLIVSMSTGRIADLNLAAAAMIGATRAELIDAPVGQELDGRRRGEFLENLAKIAGSDPLGAVELTIRRSRRKVTVTATLFRAAGDRLLLCRLGEAEARRTRVDDTVELSERLFLKGIDAMVFLDADGTIRAANDAFLYLTDAGSAALVQGRSFADFLSRGAVDLNVLLDNVKRIGHLRHYVTRLNTDFSGQVTVELSATLFHDRATPTIALVIRDSNLADATRIMPGMASNEGLRNVMQMVGYATLRDIVSETTEIIEKMCIETALELTGNNRVAAAELLSLSRQSLYVKLRKFGLLSKDAE
As for B1, in “SEC”, the “stoichiometry N” value came out at 2.
